This is an account of results in the DeepSol protein solubility set.

The nature of the data set: soluble on expression in E. coli; label from the status in PepcDB or PDB records.
Take “QYWDLRKTQQTGQCQSREDYYSAFRNEIQQSIRQSIRTDAEIMAHYSGGLDSSSIASIAALQLAKENKTLMAYTAIPKYLSGDSHRKGCKYHELDRVQSACRYYDNIETIVYQSSEDLSIFDKLQVFYPYLDQPFKAVFNMEWILAGLEMAAAKNCRILLNGEQGNGSISWKGVTLGNYLNQRVKFTRHLLKYHMKLGKQFIKSGSLNLKKNRTDLNEMKKNFLEPHYSLLRGKNRLETRSYMRSIYLWFGVEVIDPTSNLDLVQFCYDLPEWVYHGGNKYFEIRRLPKLKRRLLVRDALEGLVPPEIRHNPYRGEQAADWYYQFNKYGHAWGRLLADIAEKHPLIWEIYPKKYLLDLFANHPISPQSRNFQDVNMHLVPALSTAFFINYLNDLY”: the “soluble on expression in E. coli” value was “not soluble”.

As to “MTQQLVKKGQQISLKIKRLGINGEGIGYYKKLIIFVPGALPKEEVTATITNVTPKFAEGTLQSVKKAAKDRVVPPCPVYETCGGCQLQHLAYKAQLDFKKDLLKQALNKFKPANYQNYELRKTIGMDNPWNYRNKAQFQLRQIDGQVEAGLYQADSHQLVPIDNCLVQQPATTKVMNTLVDLLNDFQLPIYDERKNSGIFRTLMVRVGIQTGEVQVVFITQSQKFPQKEKMVRAINEQLPEVVSIMQNVQNKKTSLVMGDDTLHLWGKESIEEHINDVVFDLSPRAFFQLNPEQTEVLYNEGIKALDLQPNETVVDAYCGVGTIGLSLAKQAHQVRGMDTIPAAIDDARFNAKRLGVTNTHYAVGTAEDLLPKWFKEGFKPDAIVVDPPRTGLDRKLLTALLKQPPKKMVYISCNVSTLARDLVQLAKVYQVDYLQSVDMFPQTARCEVVVKLTRK”, the “soluble on expression in E. coli” value is recorded as “not soluble”.

Regarding “MGKSDFLSPKAIANRIKSKGLQKLRWYCQMCQKQCRDENGFKCHCMSESHQRQLLLASENPQQFMDYFSEEFRNDFLELLRRRFGTKRVHNNIVYNEYISHREHIHMNATQWETLTDFTKWLGREGLCKVDETPKGWYIQYIDRDPETIRRQLELEKKKKQDLDDEEKTAKFIEEQVRRGLEGKEQETPVFTELS”, the “soluble on expression in E. coli” value is “soluble”.

For “MGLVQTNDQQLFIGVDGGGSKCRATIYTADGTVLGTGVAGRANPLHGLAQTFESIEASAHQALLDAGMKATDSHLLVAGLGLAGVNVPRLYQDVVNWQHPFAAMYVTTDLHTACIGAHRGADGAVIITGTGSCGYAHVGDASLSIGGHGFALGDKGSGAWLGLKAAEHVLLALDGFATPTALTEMLLSHLGVKDALGIVEHLAGKSSSCYAQLARNVLDCANAGDQVAIAIVQEGADYISEMARKLFMLNPVRFSMIGGLAEPLQAWLGSDVVAKISETLAPPELGAMYYAQQQFNSATVLEHHHHHH”, the “soluble on expression in E. coli” value is reported as “soluble”.

With “MGSDKIHHHHHHMLSCHLTSPNLVPCETVDNRSSFQILFDHESIIKTYVPVMKLRFRQLQAFHAIVETGTVTGAAGLLGISQPGVSNLLSQLEDQAGMALFERLHGRLLPTPEAELLFAEVDTVMRGMSKVTQTMVDLKTRKLGQLQIASQHAMSFGFMPRLIARFASDRPELNISFQSQYSSKVQEWVWNGLFEIGVCEMPLLYDTLTVYPLYVETMLALHKDNPLARHEVLTPELLAGEPFIVMGQDHMTHRRLREAFQDAGVPLRTRVHSHLFKNLLSFVQEGMGVALLDRFMFDYDMQGDVITRPFRPTIRMDMCVITSKSRPMSQLGKEFLDLLLGELQHYSVEGRPLVPAERKRR”, the “soluble on expression in E. coli” value is “not soluble”. The result for “EACGYSDRVLQLTLGNSTITTQEAANSVVAYGRWPEYLRDSEANPVDQPTEPDVAACRFYTLDTVSWTKESRGWWWKLPDALRDMGLFGQNMYYHYLGRSGYTVHVQCNASKFHQGALGVFAVPEMCLAGDSNTTTMHTSYQNANPGEKGGTFTGTFTPDNNQTSPARRFCPVDYLLGNGTLLGNAFVFPHQIINLRTNNCATLVLPYVNSLSIDSMVKHNNWGIAILPLAPLNFASESSPEIPITLTIAPMCCEFNGLRNITLPRLQ” reads “soluble”; that for “MARIRARGSACPSQCSCSGTTVDCSGKSLASVPTGIPTTTQVLYLYDNQITKLEPGVFDRLTQLTRLDLDNNQLTVLPAGVFDKLTQLTQLSLNDNQLKSIPRGAFDNLKSLTHIWLLNNPWDCACSDILYLSRWISQHPGLVFGYLNLDPDSARCSGTNTPVRAVTEASTSPSKCPG”, “soluble”.
